# Substitutions are numbered along the chain they refer to. Numbers in names are those of the source.
# T1: human FcγRIIaR extracellular domain with C-terminal His-tag (human, UniProt P12318 34-217)
# T1 construct: also called human FcγRIIa (type R); FcgRIIaR
# T1 chain: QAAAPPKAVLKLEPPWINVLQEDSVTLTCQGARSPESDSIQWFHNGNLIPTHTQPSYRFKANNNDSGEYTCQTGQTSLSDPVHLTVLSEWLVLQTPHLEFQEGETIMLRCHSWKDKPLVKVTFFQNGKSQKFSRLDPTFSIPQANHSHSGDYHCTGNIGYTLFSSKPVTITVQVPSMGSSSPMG
# T2: cynomolgus monkey FcγRIIIaS extracellular domain with C-terminal His-tag (cynomolgus monkey, UniProt Q8SPW2 21-206 at identity 1.00))
# T2 construct: also called cyno FcγRIIIaS; FcgRIIIaS
# T2 chain: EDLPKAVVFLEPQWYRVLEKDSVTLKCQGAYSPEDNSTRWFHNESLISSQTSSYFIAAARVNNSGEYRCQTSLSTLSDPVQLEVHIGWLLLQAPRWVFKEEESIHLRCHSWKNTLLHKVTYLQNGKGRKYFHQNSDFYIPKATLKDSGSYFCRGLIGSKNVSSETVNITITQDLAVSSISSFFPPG
# T3: cynomolgus monkey FcγRIIa3 extracellular domain with C-terminal His-tag (cynomolgus monkey)
# T3 construct: also called cyno FcγRIIa3; FcgRIIa3
# T3 chain: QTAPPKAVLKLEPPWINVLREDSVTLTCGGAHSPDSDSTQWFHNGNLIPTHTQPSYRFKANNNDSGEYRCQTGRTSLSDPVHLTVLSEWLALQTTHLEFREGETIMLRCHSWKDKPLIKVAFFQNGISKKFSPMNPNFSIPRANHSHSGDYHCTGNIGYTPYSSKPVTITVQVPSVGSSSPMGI
# T4: cynomolgus monkey FcγRIIa1 extracellular domain with C-terminal His-tag (cynomolgus monkey)
# T4 construct: also called cyno FcgRIIa1; cynoFcγRIIa1; not shown: His-tag added to the C-terminus
# T4 chain: T3 chain with T95P, A121T, S128A, P133H, N135D
# T5: cynomolgus monkey FcγRIIa3 extracellular domain with C-terminal His-tag (cynomolgus monkey)
# T5 construct: also called cyno FcgRIIa3; cynoFcγRIIa3; not shown: His-tag added to the C-terminus
# T5 chain: T3 chain
# T6: human FcγRIIb extracellular domain with C-terminal His-tag (human, UniProt P31994 43-217)
# T6 construct: also called human FcgRIIb; not shown: His-tag added to the C-terminus
# T6 sequence: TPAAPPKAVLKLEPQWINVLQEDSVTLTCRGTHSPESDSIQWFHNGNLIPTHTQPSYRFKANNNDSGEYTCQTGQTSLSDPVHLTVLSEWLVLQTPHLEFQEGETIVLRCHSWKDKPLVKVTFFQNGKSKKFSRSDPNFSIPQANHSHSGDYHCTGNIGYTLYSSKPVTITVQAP
# T7: human FcγRIIaH extracellular domain with C-terminal His-tag (human, UniProt P12318 34-217)
# T7 construct: also called human FcgRIIaH; FcγRIIa type H; not shown: His-tag added to the C-terminus
# T7 sequence: T1 chain with R134H
# T8: human FcγRIIaR extracellular domain with C-terminal His-tag (human, UniProt P12318 34-217)
# T8 construct: also called human FcgRIIaR; FcγRIIa type R; not shown: His-tag added to the C-terminus
# T8 chain: T1 chain
# T9: human FcγRIIb extracellular domain, His-tagged (human, UniProt P31994 43-217)
# T9 construct: also called human FcgRIIb
# T9 sequence: T6 sequence
# T10: human FcγRIIaH extracellular domain, His-tagged (human, UniProt P12318 34-217)
# T10 construct: also called human FcgRIIaH; FcγRIIa type H
# T10 sequence: T1 chain with R134H
# T11: human FcγRIIaR extracellular domain, His-tagged (human, UniProt P12318 34-217)
# T11 construct: also called human FcgRIIaR; FcγRIIa type R
# T11 chain: T1 chain
# B1: M103205H795-MY105/M103202L889-SK1 (antibody, human IgG1, kappa, name in EU numbering)
# heavy: QVTLKESGPVLVKPTETLTLTCTVSGIDLSHDDISWVRQAPGKGLEWVGIISYAGSTYYASWAKGRLTISKDTSKNQVVLTMTNMDPVDTATYYCARGVPAYSHGGDLWGQGTLVTVSSASTKGPSVFPLAPSSKSTSGGTAALGCLVKDYFPEPVTVSWNSGALTSGVHTFPAVLQSSGLYSLSSVVTVPSSSLGTQTYICNVNHKPSNTKVDKKVEPKSCDKTHTCPPCPAPELLNGPVVFLFPPKPKDTLMISRTPEVTCVVVDVSEEDPEVKFNWYVDGVEVHNAKTKPREEQYNSTYRVVSVLTVLHQDWLNGKEYKCKVSNKALPAPIEKTISKAKGQPREPQVYTLPPSREEMTKNQVSLTCLVKGFYPSDIAVEWESNGQPENNYKTTPMVLDSDGSFFLYSKLTVDKSRWQQGNVFSCSVMHEALHNHYTQKSLSLSP
# light: DIVMTQSPATLSLSPGERATLSCTSSQSVYHANWLSWFQQKPGQPPKLLIYWASTLAYGVPSRFSGSGSGTDFTLTISSLQPEDAATYYCAGGYGGGRYAFGQGTKVEIKRTVAAPSVFIFPPSDEQLKSGTASVVCLLNNFYPREAKVQWKVDNALQSGNSQESVTEQDSKDSTYSLSSTLTLSKADYEKHKVYACEVTHQGLSSPVTKSFNRGEC
# notes: Fc variant of MS1032LO06-SG1; positions in EU numbering
# B2: M103205H795-MY229 (heavy chain) with M103202L889-SK1 (light chain) (antibody, human IgG1, kappa, name in EU numbering)
# heavy: B1 heavy with N238G, G239Y, V241S, E270D, Q297L, A332K, M398K
# light: B1 light
# notes: Substitutions introduced into M103205H795-SG1; positions in EU numbering
# B3: M103205H795-MY227 (heavy chain) with M103202L889-SK1 (light chain) (antibody, human IgG1, kappa, name in EU numbering)
# heavy: B1 heavy with N238G, G239Y, V241S, E270D, A332K, M398K
# light: B1 light
# notes: as for B2
# B4: M103205H795-MY280 (heavy chain) with M103202L889-SK1 (light chain) (antibody, human IgG1, kappa, name in EU numbering)
# heavy: B1 heavy with N238V, V241S, E270D, Q297L, A332K, M398P
# light: B1 light
# notes: as for B2
# B5: M103205H795-MY321 (heavy chain) with M103202L889-SK1 (light chain) (antibody, human IgG1, kappa, name in EU numbering)
# heavy: B1 heavy with N238H, V241S, E270D, A332K
# light: B1 light
# notes: as for B2
# B6: M103205H795-MY206/M103202L889-SK1 (antibody, human IgG1, kappa, name in EU numbering)
# heavy: B1 heavy with E270D, Q297L, A332K, M398P
# light: B1 light
# notes: as for B1
# B7: M103205H795-MY289/M103202L889-SK1 (antibody, human IgG1, kappa, name in EU numbering)
# heavy: B1 heavy with V241S, E270H, A332K
# light: B1 light
# notes: as for B1
# B8: M103205H795-MY199/M103202L889-SK1 (antibody, human IgG1, kappa, name in EU numbering)
# heavy: B1 heavy with V241S, A332K, M398P
# light: B1 light
# notes: as for B1
# B9: GpH7-B3 G236N / GpL16-k0 (antibody, human IgG1, kappa)
# heavy: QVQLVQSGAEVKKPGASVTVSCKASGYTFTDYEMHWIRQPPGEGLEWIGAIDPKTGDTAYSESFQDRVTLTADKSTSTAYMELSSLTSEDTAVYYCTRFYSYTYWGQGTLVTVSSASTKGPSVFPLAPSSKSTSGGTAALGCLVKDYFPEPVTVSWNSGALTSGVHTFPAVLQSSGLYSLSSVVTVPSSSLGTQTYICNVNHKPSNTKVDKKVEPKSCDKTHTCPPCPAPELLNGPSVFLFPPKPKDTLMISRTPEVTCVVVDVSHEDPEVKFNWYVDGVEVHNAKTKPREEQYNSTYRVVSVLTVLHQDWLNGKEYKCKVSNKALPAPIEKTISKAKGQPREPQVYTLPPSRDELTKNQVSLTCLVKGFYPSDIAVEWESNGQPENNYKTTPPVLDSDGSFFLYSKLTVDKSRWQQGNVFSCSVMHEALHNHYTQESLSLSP
# light: DIVMTQSPLSLPVTPGEPASISCQASESLVHSNRNTYLHWYLQKPGQSPQLLIYKVSNRFSGVPDRFSGSGSGTDFTLKISRVEAEDVGVYYCSQNTHVPPTFGQGTKVEIERTVAAPSVFIFPPSDEQLKSGTASVVCLLNNFYPREAKVQWKVDNALQSGNSQESVTEQDSKDSTYSLSSTLTLSKADYEKHKVYACEVTHQGLSSPVTKSFNRGEC
# notes: also called B3 variant G236N
# B10: GpH7-B3 G237D / GpL16-k0 (antibody, human IgG1, kappa)
# heavy: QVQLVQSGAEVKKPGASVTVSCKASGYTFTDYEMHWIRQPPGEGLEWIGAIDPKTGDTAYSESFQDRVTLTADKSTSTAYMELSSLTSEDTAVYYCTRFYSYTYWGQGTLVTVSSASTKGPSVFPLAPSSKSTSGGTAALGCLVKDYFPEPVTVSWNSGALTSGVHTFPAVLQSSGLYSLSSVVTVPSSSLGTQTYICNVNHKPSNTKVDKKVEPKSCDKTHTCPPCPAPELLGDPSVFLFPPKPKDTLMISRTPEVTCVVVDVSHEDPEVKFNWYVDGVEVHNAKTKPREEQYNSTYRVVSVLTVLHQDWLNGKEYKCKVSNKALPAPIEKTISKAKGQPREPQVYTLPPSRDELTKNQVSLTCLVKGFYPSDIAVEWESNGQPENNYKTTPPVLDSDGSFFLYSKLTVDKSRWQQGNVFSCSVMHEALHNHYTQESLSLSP
# light: B9 light
# notes: also called B3 variant G237D
# B11: GpH7-B3 S267H / GpL16-k0 (antibody, human IgG1, kappa)
# heavy: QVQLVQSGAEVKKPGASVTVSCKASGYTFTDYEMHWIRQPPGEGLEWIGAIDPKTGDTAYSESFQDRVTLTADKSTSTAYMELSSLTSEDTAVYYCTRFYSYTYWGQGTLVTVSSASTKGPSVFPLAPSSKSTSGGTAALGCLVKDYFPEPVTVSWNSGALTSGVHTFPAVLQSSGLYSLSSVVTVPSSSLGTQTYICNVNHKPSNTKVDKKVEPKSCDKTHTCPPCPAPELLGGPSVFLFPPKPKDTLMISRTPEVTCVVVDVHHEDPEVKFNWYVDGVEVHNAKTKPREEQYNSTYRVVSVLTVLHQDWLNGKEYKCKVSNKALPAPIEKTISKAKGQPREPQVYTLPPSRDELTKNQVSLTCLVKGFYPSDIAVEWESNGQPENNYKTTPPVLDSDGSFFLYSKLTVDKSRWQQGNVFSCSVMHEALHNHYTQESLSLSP
# light: B9 light
# notes: also called B3 variant S267H
# B12: GpH7-B3 S267L / GpL16-k0 (antibody, human IgG1, kappa)
# heavy: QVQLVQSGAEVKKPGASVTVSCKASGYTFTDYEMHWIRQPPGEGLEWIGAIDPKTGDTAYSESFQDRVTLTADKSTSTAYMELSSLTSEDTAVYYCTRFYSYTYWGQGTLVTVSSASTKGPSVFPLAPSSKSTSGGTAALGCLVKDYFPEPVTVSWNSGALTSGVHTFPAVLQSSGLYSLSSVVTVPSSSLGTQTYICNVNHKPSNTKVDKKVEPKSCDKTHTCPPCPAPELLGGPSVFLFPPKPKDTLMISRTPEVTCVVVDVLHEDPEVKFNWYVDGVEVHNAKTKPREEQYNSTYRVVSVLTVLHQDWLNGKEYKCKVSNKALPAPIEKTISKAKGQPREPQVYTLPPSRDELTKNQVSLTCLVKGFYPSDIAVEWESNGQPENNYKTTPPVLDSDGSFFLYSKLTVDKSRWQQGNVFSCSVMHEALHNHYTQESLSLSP
# light: B9 light
# notes: also called B3 variant S267L
# B13: GpH7-B3 A327I / GpL16-k0 (antibody, human IgG1, kappa)
# heavy: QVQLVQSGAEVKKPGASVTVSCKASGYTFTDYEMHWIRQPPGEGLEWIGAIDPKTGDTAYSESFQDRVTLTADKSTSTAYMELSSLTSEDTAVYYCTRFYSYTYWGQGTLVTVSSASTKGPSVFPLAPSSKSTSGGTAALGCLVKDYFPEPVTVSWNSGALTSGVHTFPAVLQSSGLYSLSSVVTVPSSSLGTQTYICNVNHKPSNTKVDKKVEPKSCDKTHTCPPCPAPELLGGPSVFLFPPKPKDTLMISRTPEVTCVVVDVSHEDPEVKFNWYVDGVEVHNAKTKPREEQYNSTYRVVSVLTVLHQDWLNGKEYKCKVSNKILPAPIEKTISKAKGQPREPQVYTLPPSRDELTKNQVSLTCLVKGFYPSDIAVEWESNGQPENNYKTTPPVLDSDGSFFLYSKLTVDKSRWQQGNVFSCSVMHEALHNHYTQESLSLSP
# light: B9 light
# notes: also called B3 variant A327I
# B14: GpH7-B3 P238Q / GpL16-k0 (antibody, human IgG1, kappa)
# heavy: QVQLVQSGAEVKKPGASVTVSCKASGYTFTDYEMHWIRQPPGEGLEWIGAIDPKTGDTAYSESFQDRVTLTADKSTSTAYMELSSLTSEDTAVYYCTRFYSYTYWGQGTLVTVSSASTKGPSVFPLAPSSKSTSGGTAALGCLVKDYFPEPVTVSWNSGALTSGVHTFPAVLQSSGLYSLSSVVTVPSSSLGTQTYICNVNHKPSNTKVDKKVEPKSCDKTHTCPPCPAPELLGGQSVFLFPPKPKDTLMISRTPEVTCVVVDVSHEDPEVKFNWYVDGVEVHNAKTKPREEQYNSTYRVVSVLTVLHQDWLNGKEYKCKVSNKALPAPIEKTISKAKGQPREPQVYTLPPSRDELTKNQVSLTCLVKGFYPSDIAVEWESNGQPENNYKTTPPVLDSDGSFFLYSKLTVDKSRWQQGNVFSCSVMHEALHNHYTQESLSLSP
# light: B9 light
# notes: also called B3 variant P238Q
# B15: GpH7-B3 N325E / GpL16-k0 (antibody, human IgG1, kappa)
# heavy: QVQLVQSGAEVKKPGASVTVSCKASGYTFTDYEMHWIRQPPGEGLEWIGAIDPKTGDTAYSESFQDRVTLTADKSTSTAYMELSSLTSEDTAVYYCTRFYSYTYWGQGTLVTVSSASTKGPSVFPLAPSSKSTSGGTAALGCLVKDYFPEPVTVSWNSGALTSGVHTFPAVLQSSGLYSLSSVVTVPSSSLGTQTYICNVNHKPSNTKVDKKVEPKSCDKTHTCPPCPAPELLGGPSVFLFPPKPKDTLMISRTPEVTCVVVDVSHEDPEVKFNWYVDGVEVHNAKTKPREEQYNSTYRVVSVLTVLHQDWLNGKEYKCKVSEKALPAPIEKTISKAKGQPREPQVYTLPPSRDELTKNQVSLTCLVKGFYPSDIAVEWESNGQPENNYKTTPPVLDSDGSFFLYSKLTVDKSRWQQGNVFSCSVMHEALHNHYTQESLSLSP
# light: B9 light
# notes: also called B3 variant N325E
# Target: T12, cynomolgus monkey FcγRIIIaS extracellular domain with C-terminal His-tag (cynomolgus monkey, UniProt A3RFZ7 21-206 (rhesus entry))
# T12 construct: also called cyno FcgRIIIaS; cynoFcγRIIIaS; not shown: His-tag added to the C-terminus
# Assay: SPR (BIACORE); KD of SG1 / KD of variant
row,KD fold (SG1 = 1),Binder
1,0.28 fold,B1

# Target: T1, human FcγRIIaR extracellular domain …
# Assay: SPR; KD of SG1 / KD of variant
# Description: (§1) The kinetic analysis of interactions between these antibodies and FcγR was carried out using BIACORE® T200 or BIACORE® 4000 (GE Healthcare). HBS-EP+ (GE Healthcare) was used as the running buffer, and the measurement temperature was set to 25° C. […] After the measurement, the antibody captured on the chip was washed off by allowing reaction with 10 mM glycine-HCl, pH1.5 and 25 mM NaOH so that the chip was regenerated and used repeatedly. The sensorgrams obtained as measurement results were analyzed by the 1:1 Langmuir binding model using the BIACORE® Evaluation Software to calculate the binding rate constant ka (L/mol/s) and dissociation rate constant kd (1/s), and the dissociation constant KD (mol/L) was calculated from these values. […] Regarding such interactions, KD values were calculated using the following 1:1 binding model described in BIACORE® T100 Software Handbook BR1006-48 Edition AE.
row,KD fold (SG1 = 1),Binder
1,13.6 fold,B2

# Target: T2, cynomolgus monkey FcγRIIIaS …
# Assay: SPR; KD of SG1 / KD of variant
# Description: as §1
row,KD fold (SG1 = 1),Binder
1,0.09 fold,B3
2,0.09 fold,B2
3,0.2 fold,B4

# Target: T3, cynomolgus monkey FcγRIIa3 …
# Assay: SPR; KD of SG1 / KD of variant
# Description: as §1
row,KD fold (SG1 = 1),Binder
1,6.8 fold,B3
2,5.9 fold,B5
3,8.9 fold,B2
4,3.7 fold,B4

# Target: T4, cynomolgus monkey FcγRIIa1 …
# Assay: SPR (BIACORE), antibody captured, FcgR analyte
row,Kd,Binder
1,1200 nM,B1
2,810 nM,B6
3,1500 nM,B7
4,1900 nM,B8

# Target: T5, cynomolgus monkey FcγRIIa3 …
# Assay: SPR (BIACORE), antibody captured, FcgR analyte
row,Kd,Binder
1,1500 nM,B1
2,3000 nM,B6
3,8600 nM,B7

# Target: T6, human FcγRIIb extracellular domain with …
# Assay: SPR (BIACORE), antibody captured, FcgR analyte
row,Kd,Binder
1,900 nM,B6

# Target: T13, human FcγRIIIaV extracellular domain with C-terminal His-tag (human, UniProt P08637 17-208)
# T13 construct: also called human FcgRIIIaV; not shown: His-tag added to the C-terminus
# Assay: SPR (BIACORE), antibody captured, FcgR analyte
# T13 sequence (P08637 17-208 F176V): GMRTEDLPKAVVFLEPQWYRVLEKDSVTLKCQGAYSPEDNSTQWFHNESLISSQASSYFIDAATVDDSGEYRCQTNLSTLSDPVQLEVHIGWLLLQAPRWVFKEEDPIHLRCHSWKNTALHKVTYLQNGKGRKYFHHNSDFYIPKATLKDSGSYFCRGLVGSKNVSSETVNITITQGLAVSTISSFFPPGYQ
row,Kd,Binder
1,13000 nM,B8

# Target: T12, cynomolgus monkey FcγRIIIaS …
# Assay: SPR (BIACORE), antibody captured, FcgR analyte
row,Kd,Binder
1,1300 nM,B1
2,3500 nM,B6
3,5200 nM,B7
4,41 nM,B8

# Target: T7, human FcγRIIaH extracellular domain …
# Assay: SPR (BIACORE), antibody captured, FcgR analyte
row,Kd,Binder
1,1500 nM,B1
2,1100 nM,B8

# Target: T8, human FcγRIIaR extracellular domain …
# Assay: SPR (BIACORE), antibody captured, FcgR analyte
row,Kd,Binder
1,3500 nM,B7

# Target: T9, human FcγRIIb extracellular domain, …
# Assay: SPR (Biacore), 25C, FcgR bound per antibody captured
row,Binding to human FcgRs (parent B3 = 100),Binder
1,75,B9
2,95,B10
3,42,B11
4,112,B12
5,46,B13
6,43,B14
7,40,B15

# Target: T10, human FcγRIIaH extracellular domain, …
# Assay: as above
row,Binding to human FcgRs (parent B3 = 100),Binder
1,54,B9
2,74,B10
3,27,B11
4,63,B12
5,37,B13
6,19,B14
7,49,B15

# Target: T14, human FcγRIIIaV extracellular domain, His-tagged (human, UniProt P08637 17-208)
# T14 construct: also called human FcgRIIIaV
# Assay: as above
# T14 sequence (P08637 17-208 F176V): as above
row,Binding to human FcgRs (parent B3 = 100),Binder
1,0,B10
2,1,B11
3,2,B12
4,-1,B14
5,4,B15

# Target: T11, human FcγRIIaR extracellular domain, …
# Assay: as above
row,Binding to human FcgRs (parent B3 = 100),Binder
1,81,B9
2,0,B10
3,3,B11
4,3,B12
5,12,B13
6,4,B14
7,13,B15

# From patent US20250076311A1 (Chugai, published 2025)
